Assay [1] concerns the target T1, human BTLA ECD-his (monomeric human BTLA-his) (human, UniProt Q7Z6A9 31-157).
T1 construct: extracellular domain; also called human BTLA extracellular domain
T1 sequence (looked up): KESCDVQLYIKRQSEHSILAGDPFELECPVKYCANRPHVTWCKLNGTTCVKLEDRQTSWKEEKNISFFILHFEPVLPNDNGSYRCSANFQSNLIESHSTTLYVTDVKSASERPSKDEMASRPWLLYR
Put plainly: Kinetic Exclusion Assay (KinExA 3000), solution phase, 6G3 IgG4 APE10840.04 at 100 pM, human BTLA ECD-his titrated. As to the method: Solution-based affinity measurements of 6G3 IgG4 (APE10840.04 (H Chain SEQ ID NO: 144, L Chain SEQ ID NO: 174)) binding to BTLA were determined on a KinExA 3000 (Sapidyne Instruments). Azlactone beads (ThermoFisher Scientific) were coated with human BTLA ECD-his (30 μg/ml) or cynomolgus monkey BTLA ECD-his (20 μg/ml) in 50 mM Na2CO3 for 2 hours at room temperature and blocked with 10 mg/ml BSA. 6G3 IgG4 APE10840.04 concentration was kept constant at 100 pM for binding in both human and cynomolgus monkey BTLA experiments. Human or cynomolgus monkey BTLA ECD-his was added at 25° C. in 2.5-fold dilutions from 1000 nM to 68 fM. Sample sets were equilibrated at 4° C. for 72 hours and brought to room temperature for 6 hours before capturing free antibody with BTLA-coupled Azlactone beads. […] Maximum and background signals were determined on samples with 6G3 only and buffer only, respectively. Data were analyzed using KinExA Pro Software 3.2.6.

Assay [2] addresses T2, human BTLA on cells (stably transfected 293c18 cells; human peripheral blood T and B cells) (human, UniProt Q7Z6A9 31-289).
T2 construct: whole, on cells; the cells are named under assay; also called cell surface BTLA; full-length human BTLA
As to the kind of experiment: flow cytometry (MFI DyL650) on gated CD20+ B cells of human PBMC, DyLight 650-labelled antibody, three-parameter fit [right panel (Naive B cells]. The procedure: Human peripheral blood mononuclear cells (PBMCs) were isolated by Histopaque (Sigma-Aldrich) density-gradient centrifugation of normal donor blood obtained from the San Diego Blood Bank (San Diego, CA). PBMCs were washed and incubated at 2×10⁷ cells/ml in FACS buffer (PBS, 1% BSA, 0.02% sodium azide) with Human BD Fc Block (2.5 μg/1×10⁶ cells, BD Biosciences) and LIVE/DEAD® Fixable Yellow Dead Cell Stain (30 μl, ThermoFisher Scientific) for 10 minutes on ice. Cells were washed once in FACS buffer, resuspended in FACS buffer at 1×10⁷ cells/ml and the following phenotyping antibodies added: Alexa Fluor 488-anti-human CD3E clone SK7, Brilliant Violet 421-anti-human CD4 clone OKT4, Brilliant Violet 785-anti-human CD8 clone SK1, and Brilliant Violet 570-anti-human CD20 clone 2H7 (50 μl each; all from BioLegend, Inc.). […] Samples were washed twice in FACS buffer, resuspended in 150 μl/well FACS buffer, and analyzed for fluorescence on a NovoCyte Flow Cytometer (ACEA Biosciences, Inc.). Data were analyzed using NovoExpress Software (ACEA Biosciences, Inc.). Median fluorescence intensities of anti-BTLA or isotype staining on gated CD4⁺ T cells (FIG. 4), CD8⁺ T cells (FIG. 4), or CD20⁺ B cells (FIG. 4) were graphed and curves fit with log(agonist) vs. response (three parameters) least squares fit for EC₅₀ calculation in GraphPad Prism (GraphPad Software, Inc.).

Assay [3] addresses T3, cynomolgus monkey BTLA ECD-his (monomeric cynomolgus monkey BTLA-his) (cynomolgus monkey, UniProt A0A2K5W7M7 31-157).
T3 construct: extracellular domain; also called cynomolgus monkey BTLA extracellular domain
T3 sequence: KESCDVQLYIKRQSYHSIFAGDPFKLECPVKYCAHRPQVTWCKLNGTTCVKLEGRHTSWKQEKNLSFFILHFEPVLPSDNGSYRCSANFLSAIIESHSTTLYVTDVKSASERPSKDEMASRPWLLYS
As to the kind of experiment: SPR (Biacore T200), antibody captured on anti-human IgG chip, monomeric BTLA-his flowed at 60, 20, 6.7 and 2.2 nM, 1:1 binding model, 25 C [lower right panel (Cyno BTLA]. The procedure:
(§1) Surface plasmon resonance (SPR) analyses were carried out using a Biacore T200 (GE Healthcare Life Sciences). Kinetic constants were determined using a 1:1 binding model in the Biacore T200 Evaluation Software to calculate on- and off-rates (kₐ and kd, respectively), and dissociation constants as a measure of overall affinity (KD). Anti-human IgG (GE Healthcare Life Sciences) was immobilized on a CMS chip using EDC-activated amine coupling chemistry (420 seconds contact at a flow rate of 10 μl/min). Antibodies (APE10585.04 6G3 IgG1 and APE10840.05 6G3 IgG4), each at 0.5 μg/m1) were captured in a 60 second contact with the flow cell using a flow rate of 10 μl/min. Monomeric human BTLA-his or cynomolgus monkey BTLA-his at 60 nM, 20 nM, 6.7 nM and 2.2 nM concentrations was flowed over captured antibody (480 seconds association, 1800 seconds dissociation). Runs were at 25° C. and used buffer containing 10 mM HEPES, pH 7.6, 150 mM NaCl, 3 mM EDTA, 0.05% polysorbate 20 (HBS-EP+, pH 7.6; Teknova) for the mobile phase and all dilutions. At the end of each cycle, bound antigen was removed by regeneration with two successive exposures (60 seconds and 90 seconds) to 3 M MgCl2 (30 μl/min). Sensorgrams and binding constants corresponding to the experiment are shown in FIG. 1 (human BTLA) and FIG. 1 (cynomolgus monkey BTLA). Antibody capture levels in resonance units (RU) are listed at the right side of each panel.
(In general: SPR reads the build-up and loss of mass on a sensor chip optically.)

Assay [4] concerns the target T3, cynomolgus monkey BTLA ECD-his …. As to the kind of experiment: SPR, Biacore T200, antibody captured on anti-human IgG, monomeric cynomolgus monkey BTLA-his as analyte, 25 °C, 1:1 model; 6G3 IgG4 (APE10840.05) captured on the chip; cynomolgus BTLA-his analyte. As to the method: as §1, with “Antibody capture levels in resonance units (RU) are listed at the right side of each panel.” left out

The Kd is the concentration at which binding is half-saturated. A word on the EC50: it is the midpoint of the concentration-response curve. As usually defined, the koff is the first-order rate constant of dissociation. The kon is the rate constant with which the complex forms.

B1: 6G3 IgG4 anti-BTLA antibody (APE10840 / APE12839 / APE13308) (antibody, V domains shown)
VH: QVQLVQSGAEVKKPGSSVKVSCKASGYVFSTSWMNWVRQAPGQGLEWMGRIYPGDADTNYVGKFKGRVTITADKSTTTAYMELSSLRSEDTAVYFCAKSGTFNFGNYRWYFDVWGKGTTVTVSS
VL: AIQLTQSPSSLSASVGDRVTITCRVSENIYSHLAWYQQKPGKAPKLLIYAATNLALGVPSRFSGSGSGTDYTLTISSLQPEDFATYYCQLFWGPPLTFGGGTKVEIKR
notes: Humanized antibody from a mouse hybridoma, tested as human IgG4 (detected with anti-human kappa); Some assays used labelled lots (DyLight 650, AF647, biotin, DyL488); also called 6G3 antibody; APE10840.03
B1: the Kd in assay [1] is around 0.41 nM. This molecule showed a 50% effective concentration (EC50) in assay [2] of 0.54 nM. In addition, in assay [3], the affinity, expressed as Kd, was 11.2 nM; the koff was 0.00393 s⁻¹; the association rate constant (kon) amounted to 351000 M⁻¹ s⁻¹. The same molecule gave a dissociation constant Kd in assay [4] of around 11 nM.

Values taken from US20230391872A1 (ANAPTYSBIO, published 2023).
